Measurements taken from IntAct's records for PubMed 20148946.

Molecular target: T1, unkl_human UNKL (UniProt Q9H9P5)
T1 sequence: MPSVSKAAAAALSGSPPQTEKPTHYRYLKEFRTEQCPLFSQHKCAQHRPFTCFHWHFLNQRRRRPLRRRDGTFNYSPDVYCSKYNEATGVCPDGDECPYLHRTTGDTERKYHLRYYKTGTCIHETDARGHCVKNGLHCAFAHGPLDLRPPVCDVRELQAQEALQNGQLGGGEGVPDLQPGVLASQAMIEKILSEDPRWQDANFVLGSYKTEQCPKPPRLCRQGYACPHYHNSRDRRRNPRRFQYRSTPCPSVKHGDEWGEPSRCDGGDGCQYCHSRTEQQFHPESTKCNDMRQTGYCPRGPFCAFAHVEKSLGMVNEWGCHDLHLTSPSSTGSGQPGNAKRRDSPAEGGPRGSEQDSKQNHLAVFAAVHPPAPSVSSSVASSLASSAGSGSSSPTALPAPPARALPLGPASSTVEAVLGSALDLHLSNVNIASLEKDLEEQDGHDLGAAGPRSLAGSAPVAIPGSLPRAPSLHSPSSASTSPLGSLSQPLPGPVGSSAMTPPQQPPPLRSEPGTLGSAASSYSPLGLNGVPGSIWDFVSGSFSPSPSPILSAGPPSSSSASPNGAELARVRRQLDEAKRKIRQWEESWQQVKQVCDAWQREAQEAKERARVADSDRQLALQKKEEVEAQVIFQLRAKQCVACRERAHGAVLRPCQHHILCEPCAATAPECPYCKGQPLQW

Ras-related C3 botulinum toxin substrate 1 (Homo sapiens) (from UniProt P63000) Q61L
effect of a mutation on the interaction: increasing interaction
